Laboratory results reported in article PMC5288196.

Assays:
[1] = molecular target: C2 isoform of CD46 on CHO-C2 cells (human)
[2] = molecular target: adenovirus serotype 35 vector virions (human adenovirus serotype 35)
[3] = molecular target: adenovirus serotype 43 virions (human adenovirus serotype 43)
[4] = molecular target: C2 isoform of CD46 on CHO-C2 cells (human); remark: listed apart in the source
[5] = molecular target: integrins on CHO and CHO-C2 cells (Chinese hamster (endogenous in CHO))

Chain of recombinant soluble human CD46 protein comprising the extracellular component of the receptor (P15529 35-343): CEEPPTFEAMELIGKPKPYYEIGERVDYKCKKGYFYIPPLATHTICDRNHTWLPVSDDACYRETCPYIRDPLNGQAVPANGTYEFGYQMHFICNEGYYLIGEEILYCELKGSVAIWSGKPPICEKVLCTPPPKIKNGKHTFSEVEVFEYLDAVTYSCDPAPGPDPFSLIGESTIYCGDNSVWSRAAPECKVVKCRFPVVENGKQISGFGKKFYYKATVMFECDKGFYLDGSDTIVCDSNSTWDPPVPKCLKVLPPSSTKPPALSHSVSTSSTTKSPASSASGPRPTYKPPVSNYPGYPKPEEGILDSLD

recombinant Ad43 fiber knob protein (domain or fragment)
inhibition of Ad43TL infection of CHO-C2 cells pre-incubated with the Ad43 knob at 100 μg/ml (no inhibition; the text prints 100 mg/ml) and 1 mg/ml; the pair blocked is m3 with m6 [1]: 55%

recombinant soluble human CD46 protein comprising the extracellular component of the receptor (from UniProt P15529 35-343) (domain or fragment)
inhibition of CHO-C2 transduction by Ad35TL pre-incubated with sCD46 (Fluc activity); the pair blocked is m4 with m6 [2]: 92%
inhibition of CHO-C2 transduction by Ad43TL pre-incubated with sCD46 (Fluc activity); the pair blocked is m3 with m6 [3]: 66%

recombinant Ad35 fiber knob domain (domain or fragment)
inhibition of Ad35TL transduction of CHO-C2 cells pre-incubated with the Ad35 knob (Fluc activity); the pair blocked is m4 with m6 [4]: 90%
inhibition of Ad43TL transduction of CHO-C2 cells pre-incubated with the Ad35 knob (Fluc activity); the pair blocked is m3 with m6 [4]: 45%

adenovirus serotype 43 virions (complex)
inhibition of Ad43TL transduction of CHO and CHO-C2 cells pre-treated on ice with EDTA (10 mM), virus attached on ice [5]: > 80%
inhibition of Ad43TL transduction of CHO and CHO-C2 cells pre-treated on ice with the RGD-containing peptide GRGDSP (2 mg/ml), virus attached on ice [5]: > 80%
